In patent US20160200782A1:

Key:
Test in all cases: cell-based or functional assay
AMPKa2(h) (human) = AMPKa2(h) (human) (UniProt P54646)
ASK1(h) (human) = ASK1(h) (human) (UniProt Q99683)
Ab1(Q252H)(h) (human) = Ab1(Q252H)(h) (human) (UniProt P00519)
Arg(h) (human) = Arg(h) (human) (UniProt P42684)
Aurora-A(h) (human) = Aurora-A(h) (human) (UniProt O14965)
BRK(h) (human) = BRK(h) (human) (UniProt Q13882)
BTK(R28H)(h) (human) = BTK(R28H)(h) (human) (UniProt Q06187)
Bmx(h) (human) = Bmx(h) (human) (UniProt P51813)
BrSK1(h) (human) = BrSK1(h) (human) (UniProt Q8TDC3)
CDK5/p25(h) (human) = CDK5/p25(h) (human) (UniProt Q00535)
[1] = molecular target: CDK9/cyclin T1(h) (human) (UniProt P50750)
CHK2(h) (human) = CHK2(h) (human) (UniProt O96017)
CaMKIV(h) (human) = CaMKIV(h) (human) (UniProt Q16566)
DAPK2(h) (human) = DAPK2(h) (human) (UniProt Q9UIK4)
DMPK(h) (human) = DMPK(h) (human) (UniProt Q09013)
EGFR(L861Q)(h) (human) = EGFR(L861Q)(h) (human) (UniProt P00533)
EphA1(h) (human) = EphA1(h) (human) (UniProt P21709)
EphA3(h) (human) = EphA3(h) (human) (UniProt P29320)
FGFR3(h) (human) = FGFR3(h) (human) (UniProt P22607)
GRK7(h) (human) = GRK7(h) (human) (UniProt Q8WTQ7)
GSK3β(h) (human) = GSK3β(h) (human) (UniProt P49841)
HIPK3(h) (human) = HIPK3(h) (human) (UniProt Q9H422)
IKKβ(h) (human) = IKKβ(h) (human) (UniProt O14920)
JAK2(h) (human) = JAK2(h) (human) (UniProt O60674)
Chain of JAK2(h) (human) (O60674 808-1132 limits assumed): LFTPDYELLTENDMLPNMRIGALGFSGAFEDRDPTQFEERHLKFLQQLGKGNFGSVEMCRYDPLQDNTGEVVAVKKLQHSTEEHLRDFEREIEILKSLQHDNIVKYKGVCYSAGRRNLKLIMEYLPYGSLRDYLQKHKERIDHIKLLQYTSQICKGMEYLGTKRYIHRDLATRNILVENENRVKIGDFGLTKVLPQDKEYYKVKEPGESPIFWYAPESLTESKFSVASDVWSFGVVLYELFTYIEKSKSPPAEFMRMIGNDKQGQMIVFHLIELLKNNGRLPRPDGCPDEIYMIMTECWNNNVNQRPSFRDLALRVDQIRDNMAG

Lyn(h) (human) = Lyn(h) (human) (UniProt P07948)
MAPK2(h) (human) = MAPK2(h) (human) (UniProt P28482)
MELK(h) (human) = MELK(h) (human) (UniProt Q14680)
MLCK(h) (human) = molecular target: MLCK(h) (human)
MSK2(h) (human) = MSK2(h) (human) (UniProt O75676)
MST2(h) (human) = MST2(h) (human) (UniProt Q13188)
Mer(h) (human) = Mer(h) (human) (UniProt Q12866)
Met(D1246H)(h) (human) = Met(D1246H)(h) (human) (UniProt P08581)
Met(M1268T)(h) (human) = Met(M1268T)(h) (human) (UniProt P08581)
PAK2(h) (human) = PAK2(h) (human) (UniProt Q13177)
Chain of PAK2(h) (human) (Q13177 whole entry): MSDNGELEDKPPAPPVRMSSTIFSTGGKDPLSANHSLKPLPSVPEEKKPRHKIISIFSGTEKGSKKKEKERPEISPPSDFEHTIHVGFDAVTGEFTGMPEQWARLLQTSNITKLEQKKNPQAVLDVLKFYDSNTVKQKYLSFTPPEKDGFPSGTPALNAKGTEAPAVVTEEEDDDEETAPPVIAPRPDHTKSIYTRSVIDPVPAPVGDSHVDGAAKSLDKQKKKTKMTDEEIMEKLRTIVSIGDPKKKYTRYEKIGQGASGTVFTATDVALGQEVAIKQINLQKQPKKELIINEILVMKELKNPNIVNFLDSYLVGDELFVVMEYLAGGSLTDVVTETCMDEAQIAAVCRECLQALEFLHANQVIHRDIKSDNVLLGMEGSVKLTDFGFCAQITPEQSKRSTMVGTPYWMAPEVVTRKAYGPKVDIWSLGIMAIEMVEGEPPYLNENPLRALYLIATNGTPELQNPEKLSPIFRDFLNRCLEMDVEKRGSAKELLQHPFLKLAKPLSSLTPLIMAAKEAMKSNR

PAK4(h) (human) = PAK4(h) (human) (UniProt O96013)
Chain of PAK4(h) (human) (O96013 whole entry): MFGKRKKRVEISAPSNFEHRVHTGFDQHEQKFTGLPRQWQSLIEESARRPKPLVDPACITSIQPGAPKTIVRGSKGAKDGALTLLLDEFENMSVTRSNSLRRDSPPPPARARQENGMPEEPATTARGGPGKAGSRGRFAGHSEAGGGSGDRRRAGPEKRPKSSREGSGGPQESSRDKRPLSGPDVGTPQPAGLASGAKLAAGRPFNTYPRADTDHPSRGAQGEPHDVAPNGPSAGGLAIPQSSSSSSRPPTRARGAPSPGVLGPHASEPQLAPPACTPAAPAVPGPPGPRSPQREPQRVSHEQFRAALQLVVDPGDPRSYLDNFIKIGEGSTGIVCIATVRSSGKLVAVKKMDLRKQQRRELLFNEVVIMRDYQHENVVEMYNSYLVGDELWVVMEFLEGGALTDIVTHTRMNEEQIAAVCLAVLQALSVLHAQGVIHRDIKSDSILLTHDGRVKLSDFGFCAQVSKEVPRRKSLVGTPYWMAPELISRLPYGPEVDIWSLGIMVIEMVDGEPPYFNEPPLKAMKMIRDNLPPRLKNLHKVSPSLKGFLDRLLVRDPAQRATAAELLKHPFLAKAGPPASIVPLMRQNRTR

PAR-1Bα(h) (human) = PAR-1Bα(h) (human) (UniProt Q7KZI7)
Chain of PAR-1Bα(h) (human) (Q7KZI7 other isoform, or with tags, fused parts or gaps limits assumed): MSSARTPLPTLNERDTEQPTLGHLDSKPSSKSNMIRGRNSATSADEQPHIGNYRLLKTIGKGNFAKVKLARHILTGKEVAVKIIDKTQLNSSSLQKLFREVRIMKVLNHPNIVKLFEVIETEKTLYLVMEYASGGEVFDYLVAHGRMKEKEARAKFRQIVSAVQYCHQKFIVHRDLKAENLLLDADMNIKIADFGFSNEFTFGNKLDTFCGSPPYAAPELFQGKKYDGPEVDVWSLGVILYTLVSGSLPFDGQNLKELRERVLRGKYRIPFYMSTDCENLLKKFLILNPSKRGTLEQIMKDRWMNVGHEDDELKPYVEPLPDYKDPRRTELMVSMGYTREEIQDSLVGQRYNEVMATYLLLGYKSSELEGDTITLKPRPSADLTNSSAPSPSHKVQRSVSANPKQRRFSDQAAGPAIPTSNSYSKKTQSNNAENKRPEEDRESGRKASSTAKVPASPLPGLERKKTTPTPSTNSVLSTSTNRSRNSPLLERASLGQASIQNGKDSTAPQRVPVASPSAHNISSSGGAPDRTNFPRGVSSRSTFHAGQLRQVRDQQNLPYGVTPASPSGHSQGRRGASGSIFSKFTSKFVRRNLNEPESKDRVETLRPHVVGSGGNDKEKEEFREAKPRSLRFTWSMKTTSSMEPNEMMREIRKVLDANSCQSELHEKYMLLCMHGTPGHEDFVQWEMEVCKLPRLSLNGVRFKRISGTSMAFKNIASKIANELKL

PDGFRα(D842V)(h) (human) = PDGFRα(D842V)(h) (human) (UniProt P16234)
PKCζ(h) (human) = PKCζ(h) (human) (UniProt Q05513)
PRK2(h) (human) = PRK2(h) (human) (UniProt Q16513)
Chain of PRK2(h) (human) (Q16513 501-984 limits assumed): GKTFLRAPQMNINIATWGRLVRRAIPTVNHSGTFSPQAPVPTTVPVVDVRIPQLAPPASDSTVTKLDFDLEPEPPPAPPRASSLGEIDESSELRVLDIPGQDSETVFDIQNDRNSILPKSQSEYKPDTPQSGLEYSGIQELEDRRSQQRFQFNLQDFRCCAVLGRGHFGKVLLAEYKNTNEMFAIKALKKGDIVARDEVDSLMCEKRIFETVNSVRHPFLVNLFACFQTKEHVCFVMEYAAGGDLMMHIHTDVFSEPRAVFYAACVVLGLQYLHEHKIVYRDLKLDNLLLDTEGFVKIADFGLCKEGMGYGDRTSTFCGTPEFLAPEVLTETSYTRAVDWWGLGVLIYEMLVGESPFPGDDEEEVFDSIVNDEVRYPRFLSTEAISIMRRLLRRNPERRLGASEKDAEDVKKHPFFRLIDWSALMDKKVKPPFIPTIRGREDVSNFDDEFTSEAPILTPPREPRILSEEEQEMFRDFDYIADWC

PhKγ2(h) (human) = PhKγ2(h) (human) (UniProt P15735)
Pim-2(h) (human) = Pim-2(h) (human) (UniProt Q9P1W9)
Chain of Pim-2(h) (human) (Q9P1W9 whole entry): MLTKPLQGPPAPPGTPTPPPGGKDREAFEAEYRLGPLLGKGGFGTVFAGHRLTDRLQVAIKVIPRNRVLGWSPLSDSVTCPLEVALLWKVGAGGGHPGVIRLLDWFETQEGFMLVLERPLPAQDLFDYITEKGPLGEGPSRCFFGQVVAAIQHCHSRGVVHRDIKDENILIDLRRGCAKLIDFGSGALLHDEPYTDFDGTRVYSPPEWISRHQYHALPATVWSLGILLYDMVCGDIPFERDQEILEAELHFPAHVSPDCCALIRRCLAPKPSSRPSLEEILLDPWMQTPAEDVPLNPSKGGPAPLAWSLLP

ROCK-I(h) (human) = ROCK-I(h) (human) (UniProt Q13464)
Ret(h) (human) = Ret(h) (human) (UniProt P07949)
Rsk2(h) (human) = Rsk2(h) (human) (UniProt P51812)
SAPK2a(T106M)(h) (human) = SAPK2a(T106M)(h) (human) (UniProt Q16539)
SAPK2b(h) (human) = SAPK2b(h) (human) (UniProt Q15759)
SIK(h) (human) = SIK(h) (human) (UniProt P57059)
Chain of SIK(h) (human) (P57059 whole entry): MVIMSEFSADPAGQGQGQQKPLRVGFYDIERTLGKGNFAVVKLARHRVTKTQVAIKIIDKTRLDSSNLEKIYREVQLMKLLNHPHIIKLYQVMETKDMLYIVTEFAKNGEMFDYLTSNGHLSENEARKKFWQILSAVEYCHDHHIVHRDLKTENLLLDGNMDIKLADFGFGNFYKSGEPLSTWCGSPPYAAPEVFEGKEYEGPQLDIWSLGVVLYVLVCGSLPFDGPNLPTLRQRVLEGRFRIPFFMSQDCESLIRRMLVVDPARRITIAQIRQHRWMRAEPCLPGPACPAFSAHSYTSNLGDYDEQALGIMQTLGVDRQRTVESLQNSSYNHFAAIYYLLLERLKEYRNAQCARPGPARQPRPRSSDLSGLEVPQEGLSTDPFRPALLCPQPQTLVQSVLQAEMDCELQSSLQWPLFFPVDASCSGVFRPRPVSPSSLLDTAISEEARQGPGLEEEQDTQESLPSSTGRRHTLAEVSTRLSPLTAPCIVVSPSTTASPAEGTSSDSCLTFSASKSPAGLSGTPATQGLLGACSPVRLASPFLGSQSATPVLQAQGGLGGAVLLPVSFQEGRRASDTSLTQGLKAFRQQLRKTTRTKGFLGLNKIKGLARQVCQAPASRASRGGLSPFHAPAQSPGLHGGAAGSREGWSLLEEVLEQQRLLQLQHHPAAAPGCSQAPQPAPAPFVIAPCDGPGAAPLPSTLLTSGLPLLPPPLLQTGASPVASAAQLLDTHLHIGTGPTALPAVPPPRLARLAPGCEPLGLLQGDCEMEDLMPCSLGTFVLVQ

Src(1-530)(h) (human) = Src(1-530)(h) (human) (UniProt P12931)
Syk(h) (human) = Syk(h) (human) (UniProt P43405)
TAO1(h) (human) = TAO1(h) (human) (UniProt Q7L7X3)
Tie2(h) (human) = Tie2(h) (human) (UniProt Q02763)
ULK2(h) (human) = ULK2(h) (human) (UniProt Q8IYT8)
Chain of ULK2(h) (human) (Q8IYT8 1-478 limits assumed): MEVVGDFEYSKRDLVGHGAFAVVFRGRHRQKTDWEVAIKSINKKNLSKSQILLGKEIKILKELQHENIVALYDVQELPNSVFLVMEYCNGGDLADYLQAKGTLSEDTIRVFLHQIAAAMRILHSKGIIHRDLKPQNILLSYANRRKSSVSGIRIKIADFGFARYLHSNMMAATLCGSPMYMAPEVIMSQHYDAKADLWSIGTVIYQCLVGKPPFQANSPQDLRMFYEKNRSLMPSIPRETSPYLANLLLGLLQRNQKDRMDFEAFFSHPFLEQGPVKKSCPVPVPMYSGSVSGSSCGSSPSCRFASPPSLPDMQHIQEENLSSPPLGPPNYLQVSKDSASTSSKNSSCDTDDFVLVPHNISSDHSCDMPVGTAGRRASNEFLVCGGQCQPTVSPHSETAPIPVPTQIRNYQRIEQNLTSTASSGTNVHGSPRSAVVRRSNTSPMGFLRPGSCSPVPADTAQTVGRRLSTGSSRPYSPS

WNK2(h) (human) = WNK2(h) (human) (UniProt Q9Y3S1)
ZIPK(h) (human) = ZIPK(h) (human) (UniProt O43293)
c-RAF(h) (human) = c-RAF(h) (human) (UniProt P04049)
cKit(D816V)(h) (human) = cKit(D816V)(h) (human) (UniProt P10721)

Chain of BTK(R28H)(h) (human) (Q06187 whole entry R28H): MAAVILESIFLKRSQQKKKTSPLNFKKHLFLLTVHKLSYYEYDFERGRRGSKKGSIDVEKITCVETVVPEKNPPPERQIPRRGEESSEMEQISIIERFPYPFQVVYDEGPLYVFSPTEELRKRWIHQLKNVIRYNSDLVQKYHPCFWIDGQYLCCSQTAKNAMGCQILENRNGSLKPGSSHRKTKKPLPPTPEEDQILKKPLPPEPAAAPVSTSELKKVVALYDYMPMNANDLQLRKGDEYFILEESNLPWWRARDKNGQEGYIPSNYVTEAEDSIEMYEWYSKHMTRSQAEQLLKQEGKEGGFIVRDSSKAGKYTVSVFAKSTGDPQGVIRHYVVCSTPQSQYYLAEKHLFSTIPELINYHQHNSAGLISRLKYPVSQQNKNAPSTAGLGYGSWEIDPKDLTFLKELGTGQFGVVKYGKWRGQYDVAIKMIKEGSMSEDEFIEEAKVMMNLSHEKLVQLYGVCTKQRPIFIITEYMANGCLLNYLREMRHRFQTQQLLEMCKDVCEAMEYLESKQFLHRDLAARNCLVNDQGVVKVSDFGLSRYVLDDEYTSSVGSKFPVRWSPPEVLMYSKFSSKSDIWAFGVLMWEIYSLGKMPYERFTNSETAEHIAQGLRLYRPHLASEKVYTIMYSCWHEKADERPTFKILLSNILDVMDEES

**Q.** What does the source list for MMI-0100 (peptide)?
**A.** % activity (AMPKa2(h) (human)): 121%; % activity (ASK1(h) (human)): 100%; % activity (Ab1(Q252H)(h) (human)): 105%; % activity (Arg(h) (human)): 89%; % activity (Aurora-A(h) (human)): 120%; % activity (BRK(h) (human)): 70%; % activity (BTK(R28H)(h) (human)): 91%; % activity (Bmx(h) (human)): 62%; % activity (BrSK1(h) (human)): 100%; % activity (CDK5/p25(h) (human)): 114%; % activity [1]: 228%; % activity (CHK2(h) (human)): 104%; % activity (CaMKIV(h) (human)): 87%; % activity (DAPK2(h) (human)): 41%; % activity (DMPK(h) (human)): 60%; % activity (EGFR(L861Q)(h) (human)): 53%; % activity (EphA1(h) (human)): 114%; % activity (EphA3(h) (human)): 107%; % activity (FGFR3(h) (human)): 73%; % activity (GRK7(h) (human)): 111%; % activity (GSK3β(h) (human)): 113%; % activity (HIPK3(h) (human)): 105%; % activity (IKKβ(h) (human)): 105%; % activity (JAK2(h) (human)): 89%; % activity (Lyn(h) (human)): 113%; % activity (MAPK2(h) (human)): 98%; % activity (MELK(h) (human)): 74%; % activity (MLCK(h) (human)): 85%; % activity (MSK2(h) (human)): 105%; % activity (MST2(h) (human)): 98%; % activity (Mer(h) (human)): 47%; % activity (Met(D1246H)(h) (human)): 99%; % activity (Met(M1268T)(h) (human)): 114%; % activity (PAK2(h) (human)): 71%; % activity (PAK4(h) (human)): 92%; % activity (PAR-1Bα(h) (human)): 62%; % activity (PDGFRα(D842V)(h) (human)): 103%; % activity (PKCζ(h) (human)): 82%; % activity (PRK2(h) (human)): 72%; % activity (PhKγ2(h) (human)): 62%; % activity (Pim-2(h) (human)): 117%; % activity (ROCK-I(h) (human)): 99%; % activity (Ret(h) (human)): 108%; % activity (Rsk2(h) (human)): 65%; % activity (SAPK2a(T106M)(h) (human)): 101%; % activity (SAPK2b(h) (human)): 99%; % activity (SIK(h) (human)): 113%; % activity (Src(1-530)(h) (human)): 95%; % activity (Syk(h) (human)): 45%; % activity (TAO1(h) (human)): 99%; % activity (Tie2(h) (human)): 28%; % activity (ULK2(h) (human)): 123%; % activity (WNK2(h) (human)): 95%; % activity (ZIPK(h) (human)): 80%; % activity (c-RAF(h) (human)): 97%; % activity (cKit(D816V)(h) (human)): 117%

**Q.** What does the source list for MMI-0200 (peptide)?
**A.** % activity (AMPKa2(h) (human)): 88%; % activity (ASK1(h) (human)): 101%; % activity (Ab1(Q252H)(h) (human)): 107%; % activity (Arg(h) (human)): 82%; % activity (Aurora-A(h) (human)): 107%; % activity (BRK(h) (human)): 127%; % activity (BTK(R28H)(h) (human)): 104%; % activity (Bmx(h) (human)): 76%; % activity (BrSK1(h) (human)): 93%; % activity (CDK5/p25(h) (human)): 97%; % activity [1]: 103%; % activity (CHK2(h) (human)): 105%; % activity (CaMKIV(h) (human)): 71%; % activity (DAPK2(h) (human)): 92%; % activity (DMPK(h) (human)): 66%; % activity (EGFR(L861Q)(h) (human)): 74%; % activity (EphA1(h) (human)): 136%; % activity (EphA3(h) (human)): 117%; % activity (FGFR3(h) (human)): 208%; % activity (GRK7(h) (human)): 124%; % activity (GSK3β(h) (human)): 132%; % activity (HIPK3(h) (human)): 105%; % activity (IKKβ(h) (human)): 109%; % activity (JAK2(h) (human)): 131%; % activity (Lyn(h) (human)): 98%; % activity (MAPK2(h) (human)): 105%; % activity (MELK(h) (human)): 59%; % activity (MLCK(h) (human)): 103%; % activity (MSK2(h) (human)): 88%; % activity (MST2(h) (human)): 104%; % activity (Mer(h) (human)): 90%; % activity (Met(D1246H)(h) (human)): 139%; % activity (Met(M1268T)(h) (human)): 143%; % activity (PAK2(h) (human)): 69%; % activity (PAK4(h) (human)): 98%; % activity (PAR-1Bα(h) (human)): 110%; % activity (PDGFRα(D842V)(h) (human)): 107%; % activity (PKCζ(h) (human)): 98%; % activity (PRK2(h) (human)): 74%; % activity (PhKγ2(h) (human)): 86%; % activity (Pim-2(h) (human)): 74%; % activity (ROCK-I(h) (human)): 117%; % activity (Ret(h) (human)): 96%; % activity (Rsk2(h) (human)): 101%; % activity (SAPK2a(T106M)(h) (human)): 100%; % activity (SAPK2b(h) (human)): 95%; % activity (SIK(h) (human)): 102%; % activity (Src(1-530)(h) (human)): 75%; % activity (Syk(h) (human)): 36%; % activity (TAO1(h) (human)): 105%; % activity (Tie2(h) (human)): 53%; % activity (ULK2(h) (human)): 132%; % activity (WNK2(h) (human)): 94%; % activity (ZIPK(h) (human)): 67%; % activity (c-RAF(h) (human)): 115%; % activity (cKit(D816V)(h) (human)): 118%
